pKd: −log10 of the molar value.
Target: TNF-FLAG (UniProt P01375)
Assay: SPR

Chain of UniProt P01375 (P01375 whole entry): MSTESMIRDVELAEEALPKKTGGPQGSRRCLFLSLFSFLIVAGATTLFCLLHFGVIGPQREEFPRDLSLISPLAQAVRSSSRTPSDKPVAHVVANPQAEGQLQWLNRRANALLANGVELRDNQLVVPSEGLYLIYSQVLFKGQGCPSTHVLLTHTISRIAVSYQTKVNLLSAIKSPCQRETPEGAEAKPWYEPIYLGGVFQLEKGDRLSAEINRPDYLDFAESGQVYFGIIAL

In the case of “Δ6-TNFR1-Fc fusion protein (from UniProt P19438-4 30-183)”, the pKd was 7.81.

— article PMC4268493
